{"source": "patent US20120121594A1", "about": "(published 2012)", "binders": {"B1": {"name": "Ab1 (antibody, human IgG1, kappa, N297A, V domains shown)", "VH": "EVQLVESGGGLVQPGGSLRLSCAASGFSLSNYYVTWVRQAPGKGLEWVGIIYGSDETAYATSAIGRFTISRDNSKNTLYLQMNSLRAEDTAVYYCARDDSSDWDAKFNLWGQGTLVTVSS", "VL": "AIQMTQSPSSLSASVGDRVTITCQASQSINNELSWYQQKPGKAPKLLIYRASTLASGVPSRFSGSGSGTDFTLTISSLQPDDFATYYCQQGYSLRNIDNAFGGGTKVEIKR"}}, "assay_in_all_cases": "cell-based or functional assay", "key": {"Mouse IL-6": {"molecular_target": "T1, Mouse IL-6 (mouse, UniProt P08505 25-211, limits assumed)", "T1 sequence (looked up)": "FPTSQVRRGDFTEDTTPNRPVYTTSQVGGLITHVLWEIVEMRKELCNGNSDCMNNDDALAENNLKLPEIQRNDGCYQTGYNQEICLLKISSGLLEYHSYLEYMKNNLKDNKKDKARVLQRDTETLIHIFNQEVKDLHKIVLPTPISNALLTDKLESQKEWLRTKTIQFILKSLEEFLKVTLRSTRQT"}, "Cynomolgus monkey IL-6": {"molecular_target": "T2, Cynomolgus monkey IL-6 (cynomolgus monkey, UniProt P79341 28-212, limits assumed)", "T2 sequence (looked up)": "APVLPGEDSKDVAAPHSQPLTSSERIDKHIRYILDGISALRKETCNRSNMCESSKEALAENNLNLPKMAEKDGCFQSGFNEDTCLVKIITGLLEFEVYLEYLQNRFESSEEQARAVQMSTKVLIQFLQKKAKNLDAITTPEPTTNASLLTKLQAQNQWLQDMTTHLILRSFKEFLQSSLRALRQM"}, "Human IL-6": {"molecular_target": "Human IL-6 (human, UniProt P05231 30-212)"}, "Rat IL-6": {"molecular_target": "T3, Rat IL-6 (rat, UniProt P20607 25-211, limits assumed)", "T3 sequence (looked up)": "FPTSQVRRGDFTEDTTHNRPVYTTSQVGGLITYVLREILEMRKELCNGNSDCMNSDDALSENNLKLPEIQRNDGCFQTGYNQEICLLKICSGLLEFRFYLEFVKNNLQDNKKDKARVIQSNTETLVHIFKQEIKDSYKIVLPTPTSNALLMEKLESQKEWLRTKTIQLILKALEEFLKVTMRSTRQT"}}, "data": [{"binder": "B1", "values": [{"measurement": "IC50 (pM), T1165 cell proliferation assay", "setting": "Mouse IL-6", "value": 1840, "unit": "pM"}, {"measurement": "IC50 (pM), T1165 cell proliferation assay", "setting": "Cynomolgus monkey IL-6", "value": 12, "unit": "pM"}, {"measurement": "IC50 (pM), T1165 cell proliferation assay", "setting": "Human IL-6", "value": 13, "unit": "pM"}, {"measurement": "IC50 (pM), T1165 cell proliferation assay", "setting": "Rat IL-6", "value": 2060, "unit": "pM"}]}]}
